From publication PMC11481526 come the findings set out here.

In this assay the target is Toxoplasma gondii ABCB7-like (TgABCB7L), TGGT1_269000 (Toxoplasma gondii). In words: native gel or EMSA; BN-PAGE (4-16% Bis-Tris) of ABCB7L-HA parasites solubilised in 1% βDDM on ice, immunoblot with anti-HA; bovine mitochondrial membranes as size marker.

In turn, “Toxoplasma gondii ABCB7-like (TgABCB7L), TGGT1_269000 (natural protein)” yielded a stoichiometry N of 2.
